From EP4778939A1 (Jiangsu Hengrui Pharmaceuticals Co., Ltd., dated 2026)

Target: human GPRC5D (human, UniProt Q9NZD1 1-345)
Assay: cell-based or functional assay

Sequence of human GPRC5D (Q9NZD1 whole entry): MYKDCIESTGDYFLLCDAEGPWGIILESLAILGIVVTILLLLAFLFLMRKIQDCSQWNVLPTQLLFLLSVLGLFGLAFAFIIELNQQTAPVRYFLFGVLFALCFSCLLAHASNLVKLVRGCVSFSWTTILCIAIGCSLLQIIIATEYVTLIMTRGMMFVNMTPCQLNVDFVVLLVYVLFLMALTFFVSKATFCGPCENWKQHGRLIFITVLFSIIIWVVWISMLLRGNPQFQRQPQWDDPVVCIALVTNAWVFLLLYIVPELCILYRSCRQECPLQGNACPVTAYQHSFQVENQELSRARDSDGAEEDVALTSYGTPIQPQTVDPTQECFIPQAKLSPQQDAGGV

B1: F2-0G4S-1 (bispecific antibody)
heavy 1: not shown
light 1: DVVMTQTPLSLSVTPGQPASISCRSSQSLVHSQGNTYLYWYLQKPGQSPKLLIYKVSNRFSGVPDRFSGSGSGTDFTLKISRVEAEDVGVYYCSQSTHVPPLTFGQGTKLEIKRTVAAPSVFIFPPSDEQLKSGTASVVCLLNNFYPREAKVQWKVDNALQSGNSQESVTEQDSKDSTYSLSSTLTLSKADYEKHKVYACEVTHQGLSSPVTKSFNRGEC
heavy 2: not shown
light 2: not shown
EC50 ratio (relative to JNJ-64407564), cytotoxic activity against NCI-H929: 0.57 ratio

B2: F4-0G4S-1 (bispecific antibody)
heavy 1: not shown
light 1: not shown
heavy 2: EVQLVQSGAEVKKPGASVKVSCKVSGYTFTDYPIHWMRQAPGQGLEWMGYVFPRDGSTKYNEKFRVRVTWTADKSTSTVYMELSSLRSEDTAVYYCSRELTAYWGQGTTVTVSSASTKGPSVFPLAPSSKSTSGGTAALGCLVKDYFPEPVTVSWNSGALTSGVHTFPAVLQSSGLYSLSSVVTVPSSSLGTQTYICNVNHKPSNTKVDKKVEPKSCDKTHTCPPCPAPEAAGGPSVFLFPPKPKDTLMISRTPEVTCVVVDVSHEDPEVKFNWYVDGVEVHNAKTKPREEQYNSTYRVVSVLTVLHQDWLNGKEYKCKVSNKALPAPIEKTISKAKGQPREPQVCTLPPSRDELTKNQVSLSCAVKGFYPSDIAVEWESNGQPENNYKTTPPVLDSDGSFFLVSKLTVDKSRWQQGNVFSCSVMHEALHNHYTQKSLSLSPGK
light 2: DVVLTQSPLSLPVTLGQPASISCKSSQSLLHSSGKTYLNWLLQRPGQSPRRLIYLVSKLDSGVPDRFSGSGSGTDFTLKISRVEAEDVGVYYCAQGTHFPRTFGGGTKVEIKRTVAAPSVFIFPPSDEQLKSGTASVVCLLNNFYPREAKVQWKVDNALQSGNSQESVTEQDSKDSTYSLSSTLTLSKADYEKHKVYACEVTHQGLSSPVTKSFNRGEC
EC50 ratio (relative to JNJ-64407564), cytotoxic activity against NCI-H929: 0.09 ratio
